From patent US11298402B2, “Lysosomal degradation of lipids and proteins and method of use thereof” (University of Ottawa, priority 2015, dated 2022)
Positions count from the first letter of the chain named. In names and notes the source's numbering stands. Entries after “also recorded” stand apart in the source; their conditions may differ.

B1: Arl8b^T34N: putative GDP-bound, dominant negative Arl8b mutant (Thr-to-Asn at 34; SEQ ID NO: 12), expressed from plasmid or adenovirus Adv-MG1023; tagged forms used (protein)
chain: MLALISRLLDWFRSLFWKEEMELTLVGLQYSGKNTFVNVIASGQFSEDMIPTVGFNMRKVTKGNVTIKIWDIGGQPRFRSMWERYCRGVNAIVYMIDAADREKIEASRNELHNLLDKPQLQGIPVLVLGNKRDLPNALDEKQLIEKMNLSAIQDREICCYSISCKEKDNIDITLQWLIQHSKSRRS
modifications: GFP/RFP tags in some forms; T34N substitution, GDP-binding
notes: tagged forms used
B2: Arl8b^Q75L: putative GTP-bound, dominant active Arl8b mutant (Gln-to-Leu at 75; SEQ ID NO: 13), expressed from plasmid or adenovirus Adv-MG1022; tagged forms used (protein)
chain: B1 chain with N34T, Q75L
modifications: GFP/RFP tags in some forms; Q75L substitution, GTP-binding
notes: tagged forms used

How the values were obtained:
[1] = test system: endogenous HOPS subunits (Vps41, Vps11, Vps39); assay: Proximity ligation assay (in situ co-IP) of Arl8b with HOPS subunits; type: cell-based, rat; conditions: mCherry-tagged Arl8b mutants; baseline and 1 h post-EPA
Protocol: In certain non-limiting examples described herein, McA-RH7777 cells stably expressing human apoB-100 and human apoC-III (designated A18-C3) were used for the studies. […] In addition, these studies, particularly those concerning EPA- or DHA-triggered lysosomal motility and CLD degradation, were also performed using primary rat hepatocytes. Transfection of plasmids encoding proteins of interest, or transfection of siRNA specific for silencing target gene expression, was achieved using the FuGENE HP Extreme reagent (Roche). Representative gene silencing siRNA sequences, which are not meant to be limiting, are described in Table 1, and plasmids encoding proteins of interest are described in Table 2. The effectiveness of siRNA silencing was verified by Western-blotting of cellular content of the target proteins, and by intracellular localization assay using siRNA-Tracker (Mirus Bioscience). Twenty-four h after plasmid transfection, or 48 h after siRNA transfection, the cells were cultured in lipid-rich media containing fetal bovine serum (20%) and OA (0.4 mM). The lipid-laden cells were switched to fresh media supplemented with OA or EPA (0.4 mM). In live imaging experiments, LipidTOX Red (Life Technologies) and LysoTracker (Life Technologies) were added to media prior to EPA treatment, to visualize lipid droplets and lysosomes, respectively. For visualizing peroxisomes, Peroxisome-GFP (Invitrogen) was introduced to the cells 24 h prior to experiments. Quantification of cell lipid contents was achieved either by direct mass measurement (HPTLC) and counting the number of lipid droplets using Image J Lipid Droplet Counter Plug-In, or indirectly by Western blot analysis of cellular content of ADRP. Secretion of apoB and TG-rich lipoprotein was determined by Western blot analysis and metabolic labeling. Mitochondrial β-oxidation was measured using MitoSOX Red (Life Technologies) in situ. Autophagic flux was determined by using Cyto-ID assay (Enzo Life Science) and by monitoring GFP-LC3 clustering in situ. Interaction of Arl8b and subunits of the HOPS complex was determined in situ by the proximity ligation assay (Olink Biosience). Cytoplasmic pH was measured using the cytosolic pHrodo indicator reagent (Invitrogen). Live imaging of fluorescent-tagged proteins was performed 1 h post-EPA treatment. Cells were also collected at the time of EPA treatment for transmission EM and tomography, as well as immuno-EM. For movies, cells were imaged at 60 sec intervals every 5 min, for a total of 30 min.
Cells were transfected with plasmids encoding RFP-tagged Arl8b^WT, Arl8b^Q75L, or Arl8b^T34N. The cells were treated with OA for 16 h (baseline condition as control). […] Quantification of signals was done in a total of 50 cells under each condition from 3 independent experiments.

C57BL/6 mice = assay: Diet-induced fatty liver mouse model (high-fat-high-sucrose diet), Oil Red O; type: in vivo; conditions: adenovirus injected 1 day before HFHS diet for up to 4 days
Protocol: The respective Arl8b^T34N (DN), Arl8b^Q75L (DA), and Arl8b^WT constructs, along with empty virus (EV; control treatment) were injected into mice 1 day prior to feeding with a high fat diet for up to 4 days. The livers were stained with Oil Red O to determine the lipid contents, under the expression of various forms of Arl8b.
In these experiments, C57BL/6 mice were injected with adenovirus encoding different variants, namely Arl8b^T34N, Arl8b^Q75L, and Arl8b^WT. In these mice, expression of Arl8b proteins encoded by the adenoviral vectors lasts at least a few weeks. Thus, 1-day after viral injection, the mice were placed on a high-fat-high-sucrose (HFHS) diet for up to 4 days.

hepatic cells = assay: Prolonged oleate treatment (OA-induced steatosis) of hepatic cells; type: cell-based; conditions: for steatosis (CLD accumulation): oleate 0.4 mM for up to 3 days
Source text: FIG. 36 illustrates that the LD content in cells cultured under lipid-rich conditions may be manipulated by expression of different forms of Arl8b. Images in the top row show position of lysosomes in cells cultured in a lipid-rich medium (i.e. supplemented with oleate) for up to 4 days. After 1-day treatment with oleate, lysosomes (stained with LysoTracker, green) were accumulated in the perinuclear regions of cells. However after 2-day oleate treatment, lysosomes were relocated towards the LDs at cell periphery. The relocation of lysosomes from the perinuclear region toward cell periphery indicates perturbed lysosomal motility under oleate-treatment conditions, which leads to prolonged association of lysosomes with LDs. Accumulation/higher interaction of lysosomes on LDs became more pronounced after 3- and 4-day treatment with oleate, with clear rings of lysosomes around LDs. Expression of the GDP-bound form of Arl8b, or Arl8b^T34N (or Arl8b “DN”, dominant negative), protects hepatocytes from accumulation of LDs upon long-term treatment with oleate. Note that even after 3 days, cells expressing Arl8b “DN” were healthy and accumulated low numbers of LDs (middle row). In contrast, expression of the GTP-bound form of Arl8b, or Arl8b^Q75L (or Arl8b “DA”, dominant active), exacerbated accumulation of LDs in cells (images in the bottom row). In fact, the cells could not tolerate long-term treatment and started to die after day 2. This situation may be similar to that in advanced levels of fatty liver, which causes hepatocyte apoptosis;
In these cells, lysosomes were continuously in contact with CLD, indicative of stalled lysosomal motility. This persistent lysosomal interaction with CLDs (i.e. “kiss” without “run”) clearly indicates the interfered process of microautophagy and lack of a mechanism in the cells, after prolonged OA treatment, that facilitates dissociation of lysosomes from CLDs, blocking the engulfment process. Thus, phenotypically, accumulation of CLD in cells cultured in lipid-rich media (e.g. supplementation with 0.4 mM OA) is invariably associated with a compromised lysosomal motility (i.e. kiss-and-run).

Molecule | binding to endogenous HOPS subunits [1] | liver steatosis (Oil Red O) (C57BL/6 mice) | steatosis (CLD accumulation) (hepatic cells) | cell survival under OA treatment (hepatic cells; medium with 0.4 mM OA, 2-day incubation)
B1 | only shows interaction with Vps39 | nearly absent lipid accumulation | without indication of steatosis | –
B2 | binds to Vps41 and Vps11; also recorded: does not bind to Vps39 | developed pronounced steatosis | developed severe steatosis | most of the cells died
